In article PMC8191807, “The fidelity of DNA replication, particularly on GC-rich templates, is reduced by defects of the Fe–S cluster in DNA polymerase δ” (Nucleic Acids Research, 2021):

B1: Pol31p, accessory subunit of DNA polymerase δ (overexpressed for Pol δ purification) (natural protein, S. cerevisiae, UniProt P46957 1-487, looked up)
chain: MDALLTKFNEDRSLQDENLSQPRTRVRIVDDNLYNKSNPFQLCYKKRDYGSQYYHIYQYRLKTFRERVLKECDKRWDAGFTLNGQLVLKKDKVLDIQGNQPCWCVGSIYCEMKYKPNVLDEVINDTYGAPDLTKSYTDKEGGSDEIMLEDESGRVLLVGDFIRSTPFITGVVVGILGMEAEAGTFQVLDICYPTPLPQNPFPAPIATCPTRGKIALVSGLNLNNTSPDRLLRLEILREFLMGRINNKIDDISLIGRLLICGNSVDFDIKSVNKDELMISLTEFSKFLHNILPSISVDIMPGTNDPSDKSLPQQPFHKSLFDKSLESYFNGSNKEILNLVTNPYEFSYNGVDVLAVSGKNINDICKYVIPSNDNGESENKVEEGESNDFKDDIEHRLDLMECTMKWQNIAPTAPDTLWCYPYTDKDPFVLDKWPHVYIVANQPYFGTRVVEIGGKNIKIISVPEFSSTGMIILLDLETLEAETVKIDI
notes: Pol31p, accessory subunit of DNA polymerase δ, Saccharomyces cerevisiae
B2: Pol32p, accessory subunit of DNA polymerase δ (overexpressed for Pol δ purification) (natural protein, S. cerevisiae, UniProt P47110 1-350, looked up)
chain: MDQKASYFINEKLFTEVKPVLFTDLIHHLKIGPSMAKKLMFDYYKQTTNAKYNCVVICCYKDQTIKIIHDLSNIPQQDSIIDCFIYAFNPMDSFIPYYDIIDQKDCLTIKNSYELKVSESSKIIERTKTLEEKSKPLVRPTARSKTTPEETTGRKSKSKDMGLRSTALLAKMKKDRDDKETSRQNELRKRKEENLQKINKQNPEREAQMKELNNLFVEDDLDTEEVNGGSKPNSPKETDSNDKDKNNDDLEDLLETTAEDSLMDVPKIQQTKPSETEHSKEPKSEEEPSSFIDEDGYIVTKRPATSTPPRKPSPVVKRALSSSKKQETPSSNKRLKKQGTLESFFKRKAK
notes: Pol32p, accessory subunit of DNA polymerase δ, Saccharomyces cerevisiae
B3: Pol31 fused to a GAL4-activation domain (GAL4AD-POL31, pBL364) (natural protein, S. cerevisiae, UniProt P46957 1-487, looked up)
chain: B1 chain
notes: Pol31p, accessory subunit of DNA polymerase δ, Saccharomyces cerevisiae; also called Pol31^AD; source: yeast two-hybrid fusion (2μ vector pACT2, strain L40 or its met18Δ derivative DKy440)

Experiments:
[1] = molecular target: T1, Pol3p, catalytic subunit of DNA polymerase δ (overexpressed for Pol δ purification) (S. cerevisiae, UniProt P15436 1-1097); test: co-purification (glutathione Sepharose, MonoS FPLC), composition by gel electrophoresis; Pol3p, Pol31p and Pol32p overexpressed together in the MET18 strain BJ2168; batch bound to glutathione Sepharose 4B at 4°C, washed with Hep250, Hep150, Hep50, eluted with 20 mM glutathione, PreScission Protease, MonoS gradient 50-1000 mM NaCl; conditions: partners not purified
T1 construct: Pol3p, catalytic subunit of DNA polymerase δ, Saccharomyces cerevisiae; also called catalytic subunit of Pol δ; source: purified on glutathione Sepharose 4B, PreScission Protease, MonoS FPLC
T1 sequence (looked up): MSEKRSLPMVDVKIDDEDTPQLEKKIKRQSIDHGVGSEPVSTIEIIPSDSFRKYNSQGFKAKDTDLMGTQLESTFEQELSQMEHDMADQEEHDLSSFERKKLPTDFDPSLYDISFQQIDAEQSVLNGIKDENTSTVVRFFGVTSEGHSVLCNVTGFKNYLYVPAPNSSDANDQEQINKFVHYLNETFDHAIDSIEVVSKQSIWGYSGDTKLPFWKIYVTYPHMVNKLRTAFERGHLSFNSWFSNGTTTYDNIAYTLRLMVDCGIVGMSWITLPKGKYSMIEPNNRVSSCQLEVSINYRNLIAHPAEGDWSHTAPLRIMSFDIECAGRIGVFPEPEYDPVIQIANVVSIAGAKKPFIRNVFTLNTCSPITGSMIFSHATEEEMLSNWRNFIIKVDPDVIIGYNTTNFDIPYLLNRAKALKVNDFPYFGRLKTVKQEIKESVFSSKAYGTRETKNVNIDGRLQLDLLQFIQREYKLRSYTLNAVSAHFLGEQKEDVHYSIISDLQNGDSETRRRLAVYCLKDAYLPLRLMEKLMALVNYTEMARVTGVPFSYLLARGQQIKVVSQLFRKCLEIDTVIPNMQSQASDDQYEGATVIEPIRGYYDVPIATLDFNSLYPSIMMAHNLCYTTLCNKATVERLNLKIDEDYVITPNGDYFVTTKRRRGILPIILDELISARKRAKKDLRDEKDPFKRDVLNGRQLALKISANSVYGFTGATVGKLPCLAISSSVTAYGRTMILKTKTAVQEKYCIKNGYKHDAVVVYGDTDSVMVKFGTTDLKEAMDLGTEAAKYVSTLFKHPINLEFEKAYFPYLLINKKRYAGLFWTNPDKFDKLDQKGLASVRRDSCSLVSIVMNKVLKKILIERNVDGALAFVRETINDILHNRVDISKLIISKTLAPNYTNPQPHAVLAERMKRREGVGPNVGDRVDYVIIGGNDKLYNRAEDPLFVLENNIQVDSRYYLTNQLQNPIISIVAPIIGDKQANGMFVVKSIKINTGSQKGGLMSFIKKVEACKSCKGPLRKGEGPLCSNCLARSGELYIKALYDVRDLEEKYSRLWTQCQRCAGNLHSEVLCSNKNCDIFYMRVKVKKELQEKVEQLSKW

[2] = molecular target: T2, Pol3 fused to a LexA DNA-binding domain (LexABD-POL3, pBL322) (S. cerevisiae, UniProt P15436 1-1097); test: two-hybrid; LexA DNA-binding domain and GAL4 activation domain fusions, (lexAop)8-lacZ reporter, quantitative β-galactosidase assays in triplicate; wild-type strain L40 and its met18Δ derivative DKy440; conditions: partners not purified
T2 construct: Pol3p, catalytic subunit of DNA polymerase δ, Saccharomyces cerevisiae; also called Pol3^BD; source: yeast two-hybrid fusion (2μ vector pBTM116, strain L40 or its met18Δ derivative DKy440)
T2 sequence (looked up): T1 sequence (looked up)

Binder	stoichiometry N [1]	fold reduction of β-galactosidase in the met18 strain relative to the wild-type strain [2]
B1	0.8 molar ratio relative to Pol3p	–
B2	1.1 molar ratio relative to Pol3p	–
B3	–	~2 fold
